Data taken from the Human Domainome abundance scans (Beltran et al. 2025).
± gives the uncertainty stated by the source.

B1: Triacylglycerol hydrolase DDHD2, residues 389 to 447; numbered along this chain, O94830 (parent)
chain: TLEEDLKKLQLSEFFDIFEKEKVDKEALALCTDRDLQEIGIPLGPRKKILNYFSTRKNS

Variants of: B1
Test: abundance fitness (aPCA) (normalised: wild type 0, dead -1); higher = more abundant; growth selection in yeast, the domain comes from the species named
Conditions: Homo sapiens

Row | Variant | abundance fitness
1 | K22I | -0.479 ± 0.11
2 | K22A | -0.039 ± 0.072
3 | K22H | 0.076 ± 0.11
4 | K22E | 0.141 ± 0.093
5 | F14N | -0.193 ± 0.19
6 | F14L | 0 ± 0.06
7 | K7M | -0.424 ± 0.18
8 | K7G | -0.056 ± 0.089
9 | K7L | -0.203 ± 0.074
10 | T32D | -0.163 ± 0.097
11 | T32Y | -0.388 ± 0.12
12 | T32S | -0.053 ± 0.072
13 | T32P | -0.589 ± 0.11
14 | T1Q | -0.506 ± 0.28
15 | T1R | -0.331 ± 0.16
16 | T1G | 0.103 ± 0.13
17 | T1S | -0.232 ± 0.12
18 | K48L | -0.007 ± 0.075
19 | K48D | -0.184 ± 0.1
20 | K48A | 0.106 ± 0.068
21 | K48Y | -0.566 ± 0.16
22 | L6H | -0.754 ± 0.46
23 | L6D | 0.082 ± 0.21
24 | L6F | 0.134 ± 0.23

Row | Variant | abundance fitness
25 | L6G | -0.698 ± 0.088
26 | A27C | 0.429 ± 0.094
27 | A27V | 0.047 ± 0.074
28 | A27L | -0.039 ± 0.071
29 | A27E | 0.231 ± 0.083
30 | A27H | 0.357 ± 0.14
31 | I41G | -0.323 ± 0.068
32 | T55N | 0.166 ± 0.12
33 | T55F | -0.482 ± 0.16
34 | T55P | -0.079 ± 0.1
35 | T55C | 0.041 ± 0.11
36 | L28E | -0.129 ± 0.096
37 | L28Q | -0.365 ± 0.12
38 | L28S | -0.215 ± 0.078
39 | L28D | -0.196 ± 0.12
40 | D35N | -0.06 ± 0.12
41 | D35Q | 0.271 ± 0.088
42 | I49E | -0.052 ± 0.093
43 | I49T | -0.301 ± 0.1
44 | I49G | -0.593 ± 0.081
45 | I49M | -0.09 ± 0.096
46 | D16W | -0.036 ± 0.058
47 | D16E | 0.075 ± 0.059
48 | D16T | -0.019 ± 0.066

Row | Variant | abundance fitness
49 | D16N | -0.025 ± 0.15
50 | D16F | 0.015 ± 0.13
51 | K47F | -0.772 ± 0.16
52 | K47P | -0.627 ± 0.12
53 | G40N | -0.253 ± 0.14
54 | G40I | -0.839 ± 0.17
55 | K20Q | -0.317 ± 0.11
56 | K20L | -0.386 ± 0.069
57 | K20G | -0.26 ± 0.12
58 | K20H | -0.212 ± 0.14
59 | K20M | 0.081 ± 0.091
60 | E38G | -0.319 ± 0.074
61 | E38I | -0.294 ± 0.11
62 | E38V | -0.036 ± 0.065
63 | E38S | -0.369 ± 0.07
64 | D24F | -0.033 ± 0.13
65 | D24V | -0.707 ± 0.12
66 | D24T | 0.494 ± 0.11
67 | D24R | -0.396 ± 0.096
68 | A29L | -0.323 ± 0.071
69 | A29E | 0.005 ± 0.11
70 | E19S | -0.054 ± 0.067
71 | E19Y | -0.255 ± 0.12
72 | E19W | -0.463 ± 0.092

Row | Variant | abundance fitness
73 | E19P | -0.857 ± 0.12
74 | E19N | -0.187 ± 0.12
75 | E19D | 0.129 ± 0.1
76 | G44A | 0.35 ± 0.054
77 | G44V | 0.375 ± 0.049
78 | G44F | -0.151 ± 0.053
79 | D5H | 0.004 ± 0.11
80 | D5L | 0.021 ± 0.052
81 | D5T | 0.15 ± 0.069
82 | E4T | -0.589 ± 0.081
83 | E4R | -0.493 ± 0.056
84 | E4H | -0.33 ± 0.098
85 | E4F | -0.264 ± 0.1
86 | C31F | 0.605 ± 0.072
87 | L36E | -0.363 ± 0.1
88 | L36P | -0.473 ± 0.12
89 | L36H | -0.352 ± 0.17
90 | L36F | -0.797 ± 0.15
91 | L36R | -0.434 ± 0.072
92 | L36T | -0.298 ± 0.093
93 | S12A | -0.023 ± 0.052
94 | S12Q | 0.101 ± 0.075
95 | S12P | -0.301 ± 0.066
96 | R46C | -0.172 ± 0.08

Row | Variant | abundance fitness
97 | R46M | -0.431 ± 0.15
98 | R46I | -0.163 ± 0.1
99 | R46A | 0.45 ± 0.066
100 | R46G | -0.107 ± 0.055
101 | R46K | -0.338 ± 0.14
102 | P42A | -0.518 ± 0.081
103 | P42G | -0.587 ± 0.073
104 | P42M | -0.649 ± 0.1
105 | R34N | 0.368 ± 0.089
106 | R34Y | 0.367 ± 0.093
107 | R34V | 0.072 ± 0.07
108 | R34G | 0.201 ± 0.065
109 | R34F | 0.174 ± 0.089
110 | N51H | -0.148 ± 0.12
111 | N51T | 0.119 ± 0.079
112 | N51C | -0.323 ± 0.096
113 | N51G | 0.061 ± 0.07
114 | N51M | 0.084 ± 0.088
115 | Y52C | -0.459 ± 0.13
116 | Y52A | -0.08 ± 0.077
117 | Y52E | -0.075 ± 0.084
118 | Q37E | 0.241 ± 0.097
119 | Q37H | -0.229 ± 0.14
120 | Q37F | -0.01 ± 0.12

Row | Variant | abundance fitness
121 | Q37V | -0.048 ± 0.067
122 | F18N | -0.197 ± 0.12
123 | F18E | -0.508 ± 0.15
124 | F18H | -0.533 ± 0.22
125 | F53R | -0.323 ± 0.069
126 | F53V | -0.363 ± 0.064
127 | F53C | -0.029 ± 0.092
128 | F53T | -0.247 ± 0.084
129 | I17V | 0.128 ± 0.34
130 | F15L | 0.02 ± 0.067
131 | F15E | -0.029 ± 0.08
132 | F15Y | -0.114 ± 0.2
133 | N58L | -0.116 ± 0.088
134 | N58P | -0.199 ± 0.11
135 | R56L | -0.086 ± 0.065
136 | R56A | 0.134 ± 0.069
137 | R56G | -0.105 ± 0.062
138 | R56M | 0.095 ± 0.092
139 | K57I | -0.075 ± 0.14
140 | K57Y | -0.244 ± 0.14
141 | K57M | 0.067 ± 0.092
142 | K57H | -0.291 ± 0.18
143 | E26N | -0.109 ± 0.15
144 | E26H | 0.153 ± 0.13

Row | Variant | abundance fitness
145 | E26W | -0.086 ± 0.084
146 | Q10G | -0.131 ± 0.046
147 | Q10I | -0.852 ± 0.34
148 | Q10E | 0.119 ± 0.061
149 | E13Q | -0.215 ± 0.15
150 | E13W | -1.45 ± 0.27
151 | P45E | 0.244 ± 0.11
152 | E3I | -0.325 ± 0.14
153 | E3G | -0.591 ± 0.057
154 | E3V | -0.454 ± 0.064
155 | E21V | 0.029 ± 0.075
156 | E21R | 0.508 ± 0.06
157 | E21H | 0.155 ± 0.12
158 | E21C | 0.257 ± 0.098
159 | I39G | -0.261 ± 0.079
160 | I39A | -0.204 ± 0.074
161 | I39D | -0.3 ± 0.12
162 | I39T | -0.336 ± 0.089
163 | I39Y | 0.548 ± 0.1
164 | I39N | -0.249 ± 0.18
165 | S59D | 0.23 ± 0.17
166 | L2M | 0.041 ± 0.085
167 | L2C | -0.621 ± 0.089
